Assay results as given in PMC2756588.
Each block holds one binder with its values, some of them ahead of it.

Key:
Experiment in all cases: SPOT array
Hse1, P38753 = target: T1, Hse1, P38753; details: median of control spots 1727
T1 sequence (P38753 208-285, looked up): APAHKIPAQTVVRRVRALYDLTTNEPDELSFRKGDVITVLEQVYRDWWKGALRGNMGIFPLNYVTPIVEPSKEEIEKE

Sla1-2, P32790 = target: T2, Sla1-2, P32790; details: median of control spots 712
T2 sequence (P32790 60-140, looked up): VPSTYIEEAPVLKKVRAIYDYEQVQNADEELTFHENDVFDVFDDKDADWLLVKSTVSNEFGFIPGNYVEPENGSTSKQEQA

Cyk3, Q07533 = target: T3, Cyk3, Q07533; details: median of control spots 1451
T3 sequence (Q07533 1-83, looked up): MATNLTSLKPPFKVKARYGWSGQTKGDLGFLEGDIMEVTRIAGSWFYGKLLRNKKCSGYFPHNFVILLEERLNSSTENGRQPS

Nbp2, Q12163 = target: T4, Nbp2, Q12163; details: median of control spots 357
T4 sequence (Q12163 103-180, looked up): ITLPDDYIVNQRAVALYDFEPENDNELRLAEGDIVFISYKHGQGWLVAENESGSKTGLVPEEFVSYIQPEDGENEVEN

Rvs167, P39743 = details: median of control spots 2707
Lsb1, P53281 = target: T5, Lsb1, P53281; details: median of control spots 388
T5 sequence (P53281 45-122, looked up): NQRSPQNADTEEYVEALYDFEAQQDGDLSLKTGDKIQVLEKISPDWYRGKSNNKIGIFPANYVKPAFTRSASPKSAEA

Myo3, P36006 = details: median of control spots 468
Bzz1-1, P38822 = target: T6, Bzz1-1, P38822; details: median of control spots 4446
T6 sequence (P38822 478-572, looked up): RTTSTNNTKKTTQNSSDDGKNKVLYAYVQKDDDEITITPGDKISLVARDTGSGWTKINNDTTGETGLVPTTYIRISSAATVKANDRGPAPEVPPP

Boi1, P38041 = target: T7, Boi1, P38041; details: median of control spots 1162
T7 sequence (P38041 1-86, looked up): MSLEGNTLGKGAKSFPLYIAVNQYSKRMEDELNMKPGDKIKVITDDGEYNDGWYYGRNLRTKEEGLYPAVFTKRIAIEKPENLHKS

Bud14, P27637 = target: T8, Bud14, P27637; details: median of control spots 956
T8 sequence (P27637 247-328, looked up): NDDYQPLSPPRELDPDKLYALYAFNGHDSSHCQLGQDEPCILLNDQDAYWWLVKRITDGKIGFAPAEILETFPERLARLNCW

Hof1, Q05080 = target: T9, Hof1, Q05080; details: median of control spots 4086
T9 sequence (Q05080 590-669, looked up): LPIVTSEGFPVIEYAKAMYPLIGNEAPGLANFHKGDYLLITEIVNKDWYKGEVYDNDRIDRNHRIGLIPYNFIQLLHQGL

Pin3, Q06449 = target: T10, Pin3, Q06449; details: median of control spots 2171
T10 sequence (Q06449 53-122, looked up): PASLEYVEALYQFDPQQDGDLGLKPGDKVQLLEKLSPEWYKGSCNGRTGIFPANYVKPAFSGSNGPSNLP

Bbc1, P47068 = target: T11, Bbc1, P47068; details: median of control spots 796
T11 sequence (P47068 1-78, looked up): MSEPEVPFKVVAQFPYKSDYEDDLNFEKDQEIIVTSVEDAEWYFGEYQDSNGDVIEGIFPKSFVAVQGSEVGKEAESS

Sho1, P40073 = details: median of control spots 1148
Boi2, P39969 = target: T12, Boi2, P39969; details: median of control spots 1161
T12 sequence (P39969 32-116, looked up): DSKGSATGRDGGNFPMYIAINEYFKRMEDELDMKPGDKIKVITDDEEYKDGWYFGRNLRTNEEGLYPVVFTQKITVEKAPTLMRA

Abp1, P15891 = target: T13, Abp1, P15891; details: median of control spots 935
T13 sequence (P15891 535-592, looked up): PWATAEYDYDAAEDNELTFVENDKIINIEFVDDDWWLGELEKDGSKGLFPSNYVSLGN

Bzz1-2, P38822 = target: T14, Bzz1-2, P38822; details: median of control spots 4538
T14 sequence (P38822 568-633, looked up): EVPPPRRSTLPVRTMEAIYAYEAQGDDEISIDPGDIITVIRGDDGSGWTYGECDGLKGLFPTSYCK

Bem1-2, P29366 = details: median of control spots 4347
Pex13, P80667 = target: T15, Pex13, P80667; details: median of control spots 1341
T15 sequence (P80667 295-386, looked up): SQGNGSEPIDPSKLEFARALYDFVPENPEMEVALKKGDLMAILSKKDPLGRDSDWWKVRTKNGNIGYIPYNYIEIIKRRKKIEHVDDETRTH

Myo5, Q04439 = target: T16, Myo5, Q04439; details: median of control spots 471
T16 sequence (Q04439 1072-1160, looked up): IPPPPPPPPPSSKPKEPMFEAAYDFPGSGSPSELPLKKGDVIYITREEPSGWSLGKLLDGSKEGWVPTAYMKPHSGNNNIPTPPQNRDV

Cdc25, P04821 = target: T17, Cdc25, P04821; details: median of control spots 969
T17 sequence (P04821 50-136, looked up): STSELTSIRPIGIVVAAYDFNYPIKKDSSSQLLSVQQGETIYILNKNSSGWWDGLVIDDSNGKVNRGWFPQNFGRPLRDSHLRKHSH

GST = details: median of control spots 978
Lsb3, P43603 = target: T18, Lsb3, P43603; details: median of control spots 406
T18 sequence (P43603 385-451, looked up): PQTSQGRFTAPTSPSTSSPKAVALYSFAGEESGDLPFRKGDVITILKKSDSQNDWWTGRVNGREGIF

Lsb4, P32793 = target: T19, Lsb4, P32793; details: median of control spots 397
T19 sequence (P32793 402-468, looked up): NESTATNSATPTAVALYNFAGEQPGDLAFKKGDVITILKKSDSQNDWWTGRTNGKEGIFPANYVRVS

Sla1-3, P32790 = target: T20, Sla1-3, P32790; details: median of control spots 5475
T20 sequence (P32790 344-424, looked up): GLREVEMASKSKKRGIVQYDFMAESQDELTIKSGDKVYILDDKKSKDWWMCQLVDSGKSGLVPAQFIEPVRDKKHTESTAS

Bem1-1, P29366 = details: median of control spots 4282
Fus1, P11710 = target: T21, Fus1, P11710; details: median of control spots 1200
T21 sequence (P11710 432-512, looked up): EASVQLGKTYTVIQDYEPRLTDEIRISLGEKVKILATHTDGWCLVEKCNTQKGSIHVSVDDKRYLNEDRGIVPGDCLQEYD

Sequence of Sho1, P40073 (P40073 287-367): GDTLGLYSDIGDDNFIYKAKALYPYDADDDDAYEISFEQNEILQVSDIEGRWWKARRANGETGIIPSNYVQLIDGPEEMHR
Sequence of Bem1-1, P29366 (P29366 55-141): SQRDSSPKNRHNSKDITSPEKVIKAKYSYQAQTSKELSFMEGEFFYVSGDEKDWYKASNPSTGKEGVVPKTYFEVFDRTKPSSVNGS
Sequence of Bem1-2, P29366 (P29366 139-227): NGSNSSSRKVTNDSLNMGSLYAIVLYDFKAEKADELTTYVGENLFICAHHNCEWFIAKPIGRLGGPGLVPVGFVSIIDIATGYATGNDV
Sequence of Rvs167, P39743 (P39743 419-482): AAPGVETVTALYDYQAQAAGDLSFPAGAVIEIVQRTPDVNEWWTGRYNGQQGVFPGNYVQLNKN

Binder: GLRRARYKFPGQQKI
SPOT intensity (Hse1, P38753): 12
SPOT intensity (Sla1-2, P32790): 1
SPOT intensity (Cyk3, Q07533): 0
SPOT intensity (Nbp2, Q12163): 22
SPOT intensity (Rvs167, P39743): 6
SPOT intensity (Lsb1, P53281): 71
SPOT intensity (Myo3, P36006): 4
SPOT intensity (Bzz1-1, P38822): 2
SPOT intensity (Boi1, P38041): 3
SPOT intensity (Bud14, P27637): 9
SPOT intensity (Hof1, Q05080): 6
SPOT intensity (Pin3, Q06449): 4
SPOT intensity (Bbc1, P47068): 79
SPOT intensity (Sho1, P40073): 69
SPOT intensity (Boi2, P39969): 0
SPOT intensity (Abp1, P15891): 47
SPOT intensity (Bzz1-2, P38822): 1
SPOT intensity (Bem1-2, P29366): 2
SPOT intensity (Pex13, P80667): 2
SPOT intensity (Myo5, Q04439): 0
SPOT intensity (Cdc25, P04821): 15
SPOT intensity (GST): 3
SPOT intensity (Lsb3, P43603): 0
SPOT intensity (Lsb4, P32793): 2
SPOT intensity (Sla1-3, P32790): 50
SPOT intensity (Bem1-1, P29366): 0
SPOT intensity (Fus1, P11710): 14

Binder: AGKRRLPLVRFKASD
SPOT intensity (Hse1, P38753): 9
SPOT intensity (Sla1-2, P32790): 3
SPOT intensity (Cyk3, Q07533): 9
SPOT intensity (Nbp2, Q12163): 125
SPOT intensity (Rvs167, P39743): 6
SPOT intensity (Lsb1, P53281): 18
SPOT intensity (Myo3, P36006): 22
SPOT intensity (Bzz1-1, P38822): 0
SPOT intensity (Boi1, P38041): 16
SPOT intensity (Bud14, P27637): 28
SPOT intensity (Hof1, Q05080): 7
SPOT intensity (Pin3, Q06449): 8
SPOT intensity (Bbc1, P47068): 507
SPOT intensity (Sho1, P40073): 260
SPOT intensity (Boi2, P39969): 1
SPOT intensity (Abp1, P15891): 262
SPOT intensity (Bzz1-2, P38822): 2
SPOT intensity (Bem1-2, P29366): 3
SPOT intensity (Pex13, P80667): 4
SPOT intensity (Myo5, Q04439): 2
SPOT intensity (Cdc25, P04821): 55
SPOT intensity (GST): 4
SPOT intensity (Lsb3, P43603): 16
SPOT intensity (Lsb4, P32793): 18
SPOT intensity (Sla1-3, P32790): 27
SPOT intensity (Bem1-1, P29366): 2
SPOT intensity (Fus1, P11710): 23

The remaining lines, values ahead:

SPOT intensity (Hse1, P38753): 6
SPOT intensity (Sla1-2, P32790): 0
SPOT intensity (Cyk3, Q07533): 9
SPOT intensity (Nbp2, Q12163): 24
SPOT intensity (Rvs167, P39743): 4
SPOT intensity (Lsb1, P53281): 104
SPOT intensity (Myo3, P36006): 7
SPOT intensity (Bzz1-1, P38822): 2
SPOT intensity (Boi1, P38041): 5
SPOT intensity (Bud14, P27637): 10
SPOT intensity (Hof1, Q05080): 6
SPOT intensity (Pin3, Q06449): 4
SPOT intensity (Bbc1, P47068): 101
SPOT intensity (Sho1, P40073): 122
SPOT intensity (Boi2, P39969): 3
SPOT intensity (Abp1, P15891): 136
SPOT intensity (Bzz1-2, P38822): 4
SPOT intensity (Bem1-2, P29366): 0
SPOT intensity (Pex13, P80667): 2
SPOT intensity (Myo5, Q04439): 0
SPOT intensity (Cdc25, P04821): 18
SPOT intensity (GST): 3
SPOT intensity (Lsb3, P43603): 0
SPOT intensity (Lsb4, P32793): 6
SPOT intensity (Sla1-3, P32790): 43
SPOT intensity (Bem1-1, P29366): 1
SPOT intensity (Fus1, P11710): 52
Binder: IKKRNKIRLPSGSPE

SPOT intensity (Hse1, P38753): 97
SPOT intensity (Sla1-2, P32790): 2
SPOT intensity (Cyk3, Q07533): 1
SPOT intensity (Nbp2, Q12163): 34
SPOT intensity (Rvs167, P39743): 4
SPOT intensity (Lsb1, P53281): 1050
SPOT intensity (Myo3, P36006): 27
SPOT intensity (Bzz1-1, P38822): 3
SPOT intensity (Boi1, P38041): 1
SPOT intensity (Bud14, P27637): 15
SPOT intensity (Hof1, Q05080): 77
SPOT intensity (Pin3, Q06449): 66
SPOT intensity (Bbc1, P47068): 98
SPOT intensity (Sho1, P40073): 84
SPOT intensity (Boi2, P39969): 1
SPOT intensity (Abp1, P15891): 70
SPOT intensity (Bzz1-2, P38822): 17
SPOT intensity (Bem1-2, P29366): 53
SPOT intensity (Pex13, P80667): 28
SPOT intensity (Myo5, Q04439): 4
SPOT intensity (Cdc25, P04821): 35
SPOT intensity (GST): 0
SPOT intensity (Lsb3, P43603): 4
SPOT intensity (Lsb4, P32793): 9
SPOT intensity (Sla1-3, P32790): 388
SPOT intensity (Bem1-1, P29366): 0
SPOT intensity (Fus1, P11710): 27
Binder: SLSRRRFSLPSMPNV
